The record followed here is publication PMC11370418.

Some results are limits rather than exact numbers.

Common to all, as to assay: …
The target of test [1] is DDIT3-GS-DDIT3 synthetic AD (human).
Test [2] has as its target MYB-GS-MYB synthetic AD (human).
The target in test [3] is monomeric enhanced green fluorescent protein (meGFP).

With P300 KIX domain (domain or fragment), the fold change of Kd against single-site DDIT3 in test [1] is under 1.1 fold. This substance came in with a fold change of Kd against single-site MYB in test [2] of under 1.1 fold.

One may read the Kd as the concentration at which binding is half-saturated. With “TFIID domain TAF12 (from UniProt Q16514 1-161) (natural protein)”, the Kd in test [3] is over 100 µM.
